This assay deals with T1, 人泌乳素受体-ECD蛋白 (25-234aa, Factor Xa site, 6xHis) (human).
T1 chain: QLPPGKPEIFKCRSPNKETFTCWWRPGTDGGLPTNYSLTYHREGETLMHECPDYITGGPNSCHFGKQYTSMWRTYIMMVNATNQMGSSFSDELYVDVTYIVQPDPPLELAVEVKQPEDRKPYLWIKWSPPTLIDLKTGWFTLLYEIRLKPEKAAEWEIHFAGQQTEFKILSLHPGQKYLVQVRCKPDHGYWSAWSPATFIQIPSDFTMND
Nature of the assay: indirect ELISA on coated PRLR-ECD. (ELISA stands for enzyme-linked immunosorbent assay.)

B1: 抗泌乳素受体的纳米抗体融合蛋白CQ24-Fc (Fc fusion)
chain: SQVQLVESGGGSVQAGGSLRLSCVASGYTRRGNCLGWFRQAPGKEREGVASIYASSGWTSYADSVKGRFTISLDNAKTMVYLQMNSLNPEDTAMYFCAAADTGLCGLGARIYSYWGQGTQVTVSSDKTHTCPPCPAPEAAGGPSVFLFPPKPKDTLMISRTPEVTCVVVDVSHEDPEVKFNWYVDGVEVHNAKTKPREEQYNSTYRVVSVLTVLHQDWLNGKEYKCKVSNKALPAPIEKTISKAKGQPREPQVYTLPPSREEMTKNQVSLTCLVKGFYPSDIAVEWESNGQPENNYKTTPPVLDSDGSFFLYSKLTVDKSRWQQGNVFSCSVMHEALHNHYTQKSLSLSLGK
notes: the signal peptide is left out here; also called CQ24纳米抗体; CQ24-VHH
As usually defined, the EC50 is the concentration needed to bring the measured effect to its halfway point. Low readings indicate a more potent agent, high ones a less potent agent. The molecule B1 showed an EC50 of 4.6 ng/mL.

The values are drawn from patent CN116655791A (ZHEJIANG CHUQI BIOLOGICAL TECH CO LTD, dated 2023).
